Experimental findings from the supplement of paper PMC5998384 are described below.

The test system of series [1] is HeLa Kyoto. The experiment in a line: solubility in G1/S (NP-40 vs SDS abundance) (log2 ratio); higher = more soluble. The conditions noted are these: cell cycle stage: G1/S.
Series [2] has as its system HeLa Kyoto. The experiment in a line: solubility change mitosis vs G1/S (difference of NP-40 vs SDS log2 ratios) (log2 ratio difference); higher = more soluble in mitosis.
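Throughout, for solubility change mitosis vs G1/S (difference of NP-40 vs SDS log2 ratios): synchronized HeLa Kyoto cells (double thymidine block for G1/S, nocodazole release for mitosis), protein amounts in NP-40 versus SDS lysates quantified by mass spectrometry, three biological replicates.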
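Throughout, for solubility in G1/S (NP-40 vs SDS abundance): HeLa Kyoto cells arrested at G1/S by double thymidine block, proteins quantified by TMT10plex mass spectrometry in mild NP-40 versus SDS extracts, three biological replicates.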

Take “MDPQPPPPAQGSPPHRGRGRGRGRGRGRGRGRGRGGAGAPRAPLPCPTCGRLFRFPYYLSRHRLSHSGLRPHACPLCPKAFRRPAHLSRHLRGHGPQPPLRCAACPRTFPEPAQLRRHLAQEHAGGEVELAIERVAKETAEPSWGPQDEGSEPPTTAAAGATEEEAVAAWPETWPAGEPSTLAAPTSAAEPRESESEEAEAGAAELRAELALAAGRQEEKQVLLQADWTLLCLRCREAFATKGELKAHPCLRPEGEQEGEGGPPPRPKRHQCSICLKAFARPWSLSRHRLVHSTDRPFVCPDCGLAFRLASYLRQHRRVHGPLSLLAPLPAAGKKDDKASGARNSAKGPEGGEGAECGGASEGGEGQNGGDAAPARPPAGEPRFWCPECGKGFRRRAHLRQHGVTHSGARPFQCVRCQREFKRLADLARHAQVHAGGPAPHPCPRCPRRFSRAYSLLRHQRCHRAELERAAALQALQAQAPTSPPPPPPPLKAEQEEEGLPLPLANIKEEPPSPGTPPQSPPAPPVFLSASCFDSQDHSAFEMEEEEVDSKAHLRGLGGLAS [ZNF579]”: in series [1], the “solubility in G1/S (log2)” value was -0.0421. The “solubility change mitosis (log2)” value in series [2] was determined as 0.288.
Taken in the same sequence, the figures for “MDPRGTKRGAEKTEVAEPRNKLPRPAPSLPTDPALYSGPFPFYRRPSELGCFSLDAQRQYHGDARALRYYSPPPTNGPGPNFDLRDGYPDRYQPRDEEVQERLDHLLCWLLEHRGRLEGGPGWLAEAIVTWRGHLTKLLTTPYERQEGWQLAASRFQGTLYLSEVETPNARAQRLARPPLLRELMYMGYKFEQYMCADKPGSSPDPSGEVNTNVAFCSVLRSRLGSHPLLFSGEVDCTDPQAPSTQPPTCYVELKTSKEMHSPGQWRSFYRHKLLKWWAQSFLPGVPNVVAGFRNPDGFVSSLKTFPTMKMFEYVRNDRDGWNPSVCMNFCAAFLSFAQSTVVQDDPRLVHLFSWEPGGPVTVSVHQDAPYAFLPIWYVEAMTQDLPSPPKTPSPK [DXO]” were 0.0451 and -0.2.
In the same order, the values of “MDPRVAWIQPEQKGPANALWMQIWETSQGVGRGGSGFASYFCLNSPALDTAAAAGAAGRGSGGLGPALPAASPPPPGPTAPAALPPALLTALGPAAEGARRLHKSPSLSSSSSSSSSNAESGTESPGCSSSSSSSASLGRPGGGRGGAFFNFADGAPSAPGTANGHPGPRGPAPAGSPSQHQFHPGRRKRENKASTYGLNYLLSGSRAAALSGGGGPGAQAPRPGTPWKSRAYSPGIQGLHEEIIDFYNFMSPCPEEAAMRREVVKRIETVVKDLWPTADVQIFGSFSTGLYLPTSDIDLVVFGKWERPPLQLLEQALRKHNVAEPCSIKVLDKATVPIIKLTDQETEVKVDISFNMETGVRAAEFIKNYMKKYSLLPYLILVLKQFLLQRDLNEVFTGGISSYSLILMAISFLQLHPRIDARRADENLGMLLVEFFELYGRNFNYLKTGIRIKEGGAYIAKEEIMKAMTSGYRPSMLCIEDPLLPGNDVGRSSYGAMQVKQVFDYAYIVLSHAVSPLARSYPNRDAESTLGRIIKVTQEVIDYRRWIKEKWGSKAHPSPGMDSRIKIKERIATCNGEQTQNREPESPYGQRLTLSLSSPQLLSSGSSASSVSSLSGSDVDSDTPPCTTPSVYQFSLQAPAPLMAGLPTALPMPSGKPQPTTSRTLIMTTNNQTRFTIPPPTLGVAPVPCRQAGVEGTASLKAVHHMSSPAIPSASPNPLSSPHLYHKQHNGMKLSMKGSHGHTQGGGYSSVGSGGVRPPVGNRGHHQYNRTGWRRKKHTHTRDSLPVSLSR [PAPD7]” are -0.21 and 0.0856.
Taken in the same sequence, the figures for “MDRDLLRQSLNCHGSSLLSLLRSEQQDNPHFRSLLGSAAEPARGPPPQHPLQGRKEKRVDNIEIQKFISKKADLLFALSWKSDAPATSEINEDSEDHYAIMPPLEQFMEIPSMDRRELFFRDIERGDIVIGRISSIREFGFFMVLICLGSGIMRDIAHLEITALCPLRDVPSHSNHGDPLSYYQTGDIIRAGIKDIDRYHEKLAVSLYSSSLPPHLSGIKLGVISSEELPLYYRRSVELNSNSLESYENVMQSSLGFVNPGVVEFLLEKLGIDESNPPSLMRGLQSKNFSEDDFASALRKKQSASWALKCVKIGVDYFKVGRHVDAMNEYNKALEIDKQNVEALVARGALYATKGSLNKAIEDFELALENCPTHRNARKYLCQTLVERGGQLEEEEKFLNAESYYKKALALDETFKDAEDALQKLHKYMQKSLELREKQAEKEEKQKTKKIETSAEKLRKLLKEEKRLKKKRRKSTSSSSVSSADESVSSSSSSSSSGHKRHKKHKRNRSESSRSSRRHSSRASSNQIDQNRKDECYPVPANTSASFLNHKQEVEKLLGKQDRLQYEKTQIKEKDRCPLSSSSLEIPDDFGGRSEDPRDFYNSYKTQAGSSKTEKPYKSERHFSSRRNSSDSFCRNSEDKIYGYRRFEKDIEGRKEHYRRWEPGSVRHSTSPASSEYSWKSVEKYKKYAHSGSRDFSRHEQRYRLNTNQGEYEREDNYGEDIKTEVPEEDALSSKEHSESSVKKNLPQNLLNIFNQIAEFEKEKGNKSKN [TTC14]” were -0.392 and 0.329.
“MDRGQPSLEPAAAAPRASGRCVIAPVRAVLRLRRRVCVLRKRRLLQPGGGPDVGTGAPRPGCSPRAPRADLDQPKFFTFDSPAELPSRTPRKKRRRSRLVLYPETSRKYRPRVEHRSRAQRCLLLLVAIVGFQVLNAIENLDDNAQRYDLDGLEKALQRAVFGQPAAVSRIVALMRDYLATHVHSRPLLLALHGPSGVGKSHVGRLLARHFRSVLEDSALVLQYHARHHCPEARAAQDCREELARRVADVVARAEAEEKTPLLVLDDVELMPRPLLDELHGFLQPQRSHHFHNAIYVLLSGAGGAEVTRFVLQNASRALPLRPDGFRSAEAAAAQAEEDLRASLLAVLSREHPLWQAAAIVPFLLLDKRDVVSCFRDEMAGEGFFPDQARAENLAAQLSFYRVAGREFAVTGCKQVVATVNLL [TOR4A]”: the “solubility in G1/S (log2)” value in series [1] stood at 0.137. Also, the “solubility change mitosis (log2)” value in series [2] turned out to be 0.0625.
As for “MDSPGYNCFVDKDKMDAAIQDLGPKELSCTELQELKQLARQGYWAQSHALRGKVYQRLIRDIPCRTVTPDASVYSDIVGKIVGKHSSSCLPLPEFVDNTQVPSYCLNARGEGAVRKILLCLANQFPDISFCPALPAVVALLLHYSIDEAECFEKACRILACNDPGRRLIDQSFLAFESSCMTFGDLVNKYCQAAHKLMVAVSEDVLQVYADWQRWLFGELPLCYFARVFDVFLVEGYKVLYRVALAILKFFHKVRAGQPLESDSVKQDIRTFVRDIAKTVSPEKLLEKAFAIRLFSRKEIQLLQMANEKALKQKGITVKQKSVSLSKRQFVHLAVHAENFRSEIVSVREMRDIWSWVPERFALCQPLLLFSSLQHGYSLARFYFQCEGHEPTLLLIKTTQKEVCGAYLSTDWSERNKFGGKLGFFGTGECFVFRLQPEVQRYEWVVIKHPELTKPPPLMAAEPTAPLSHSASSDPADRLSPFLAARHFNLPSKTESMFMAGGSDCLIVGGGGGQALYIDGDLNRGRTSHCDTFNNQPLCSENFLIAAVEAWGFQDPDTQ [TBC1D24]”, the “solubility in G1/S (log2)” value in series [1] was -0.273. In series [2], the “solubility change mitosis (log2)” value was -0.16.
Taken in the same sequence, the figures for “MDSPWDELALAFSRTSMFPFFDIAHYLVSVMAVKRQPGAAALAWKNPISSWFTAMLHCFGGGILSCLLLAEPPLKFLANHTNILLASSIWYITFFCPHDLVSQGYSYLPVQLLASGMKEVTRTWKIVGGVTHANSYYKNGWIVMIAIGWARGAGGTIITNFERLVKGDWKPEGDEWLKMSYPAKVTLLGSVIFTFQHTQHLAISKHNLMFLYTIFIVATKITMMTTQTSTMTFAPFEDTLSWMLFGWQQPFSSCEKKSEAKSPSNGVGSLASKPVDVASDNVKKKHTKKNE [TMEM38B]” were -0.0322 and -0.17.
In the same order, the values of “MDTKHFLPLDFSTQVNSSLTSPTGRGSMAAPSLHPSLGPGIGSPGQLHSPISTLSSPINGMGPPFSVISSPMGPHSMSVPTTPTLGFSTGSPQLSSPMNPVSSSEDIKPPLGLNGVLKVPAHPSGNMASFTKHICAICGDRSSGKHYGVYSCEGCKGFFKRTVRKDLTYTCRDNKDCLIDKRQRNRCQYCRYQKCLAMGMKREAVQEERQRGKDRNENEVESTSSANEDMPVERILEAELAVEPKTETYVEANMGLNPSSPNDPVTNICQAADKQLFTLVEWAKRIPHFSELPLDDQVILLRAGWNELLIASFSHRSIAVKDGILLATGLHVHRNSAHSAGVGAIFDRVLTELVSKMRDMQMDKTELGCLRAIVLFNPDSKGLSNPAEVEALREKVYASLEAYCKHKYPEQPGRFAKLLLRLPALRSIGLKCLEHLFFFKLIGDTPIDTFLMEMLEAPHQMT [RXRA]” are 0.173 and -0.151.
Taken in the same sequence, the figures for “MEAAETEAEAAALEVLAEVAGILEPVGLQEEAELPAKILVEFVVDSQKKDKLLCSQLQVADFLQNILAQEDTAKGLDPLASEDTSRQKAIAAKEQWKELKATYREHVEAIKIGLTKALTQMEEAQRKRTQLREAFEQLQAKKQMAMEKRRAVQNQWQLQQEKHLQHLAEVSAEVRERKTGTQQELDRVFQKLGNLKQQAEQERDKLQRYQTFLQLLYTLQGKLLFPEAEAEAENLPDDKPQQPTRPQEQSTGDTMGRDPGVSFKAVGLQPAGDVNLP [ZWINT]” were -0.0767 and 0.896.
As to “MEAKTLGTVTPRKPVLSVSARKIKDNAADWHNLILKWETLNDAGFTTANNIANLKISLLNKDKIELDSSSPASKENEEKVCLEYNEELEKLCEELQATLDGLTKIQVKMEKLSSTTKGICELENYHYGEESKRPPLFHTWPTTHFYEVSHKLLEMYRKELLLKRTVAKELAHTGDPDLTLSYLSMWLHQPYVESDSRLHLESMLLETGHRAL [CINP]”, the “solubility in G1/S (log2)” value in series [1] turned out to be 0.148. Also, in series [2], the “solubility change mitosis (log2)” value was 0.525.
For “MEDKRNIQIIEWEHLDKKKFYVFGVAMTMMIRVSVYPFTLIRTRLQVQKGKSLYHGTFDAFIKILRADGITGLYRGFLVNTFTLISGQCYVTTYELTRKFVADYSQSNTVKSLVAGGSASLVAQSITVPIDVVSQHLMMQRKGEKMGRFQVRGNPEGQGVVAFGQTKDIIRQILQADGLRGFYRGYVASLLTYIPNSAVWWPFYHFYAEQLSYLCPKECPHIVFQAVSGPLAAATASILTNPMDVIRTRVQVEGKNSIILTFRQLMAEEGPWGLMKGLSARIISATPSTIVIVVGYESLKKLSLRPELVDSRHW [SLC25A44]”, the “solubility in G1/S (log2)” value in series [1] was -0.146. Moreover, the “solubility change mitosis (log2)” value in series [2] is -0.117.
